Reference: patent US20240279281A1, “Peptide Inhibitors of Interleukin-23 Receptor” (Janssen Pharmaceutica NV, priority 2023, published 2024)
Starred links: 1 amine or outer side, 2 acyl side, 3 side chain; linkers in the order of their positions; H or OH if unused. Positions of bridges follow the written chain, without caps; N, C: chain ends. Non-standard residues stand in square brackets, D forms with d. No end group written: not given here. X1 = 3‑(7-(3-acetamidophenyl)-1H-indol-3-yl)‑2‑aminopropanoic acid, CC(=O)Nc1cccc(-c2cccc3c(CC(N[*:1])C(=O)[*:2])c[nH]c23)c1; X7 = 2‑amino‑3‑(5-methylpyridin-3-yl)propanoic acid, Cc1cncc(CC(N[*:1])C(=O)[*:2])c1; Trp(7-Me) = Cc1cccc2c(C[C@H](N)C(=O)O)c[nH]c12; 3Pal = N[C@@H](Cc1cccnc1)C(=O)O; NMeK = CN[C@@H](CCCCN)C(=O)O; Pen = CC(C)(S)[C@H](N)C(=O)O; lipid = not defined here; Thp = NC1(C(=O)O)CCOCC1; Abu = CC[C@H](N)C(=O)O; Ava = NCCCCC(=O)O; Sar = CNCC(=O)O

T1: interleukin-23 receptor (IL-23R), Q5VWK5
T1 chain: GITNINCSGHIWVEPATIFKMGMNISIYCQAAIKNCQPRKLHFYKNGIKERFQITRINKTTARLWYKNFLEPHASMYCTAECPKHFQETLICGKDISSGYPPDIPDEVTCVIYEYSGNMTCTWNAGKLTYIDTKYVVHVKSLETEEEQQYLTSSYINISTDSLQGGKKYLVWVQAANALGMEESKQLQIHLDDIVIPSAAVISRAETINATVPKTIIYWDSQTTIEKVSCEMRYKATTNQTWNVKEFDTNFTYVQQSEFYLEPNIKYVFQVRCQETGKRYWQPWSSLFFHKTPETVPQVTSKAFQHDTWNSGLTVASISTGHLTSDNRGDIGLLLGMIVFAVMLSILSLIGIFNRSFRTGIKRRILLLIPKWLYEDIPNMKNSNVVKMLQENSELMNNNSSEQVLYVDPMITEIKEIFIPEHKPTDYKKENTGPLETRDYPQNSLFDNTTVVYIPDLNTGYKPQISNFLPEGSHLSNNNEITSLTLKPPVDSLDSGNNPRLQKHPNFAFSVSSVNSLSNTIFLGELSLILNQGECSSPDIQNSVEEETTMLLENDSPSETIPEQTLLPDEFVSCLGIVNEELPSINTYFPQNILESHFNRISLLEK

B1: SEQ ID NO: 167 (peptide)
peptide: [(R)‑3‑carboxy‑2‑(4-(((R)-5-carboxy-5-hydrazineylpentyl)amino)-4-oxobutanamido)‑N,N,N‑trimethylpropan‑1‑aminium][Pen]NT[Trp(7-Me)]K(Ac)[Pen][2‑amino‑3‑(4-(2-aminoethoxy)phenyl)propanoic acid][2‑amino‑3‑(6-hydroxynaphthalen-2-yl)propanoic acid][Thp]EN[3Pal][NMeK](lipid)
modifications: disulfide 2-7 (inferred); ends not checked; also: X14: lipidated N-methyl-lysine, lipid and methyl place not given here
B2: SEQ ID NO: 177 (peptide)
peptide: [Pen]NT[Trp(7-Me)]K(Ac)[Pen][2‑amino‑3‑(4-(2-aminoethoxy)phenyl)propanoic acid][2‑amino‑3‑(6-hydroxynaphthalen-2-yl)propanoic acid][Thp]K(lipid)N[3Pal][Sar]
modifications: disulfide 1-6 (inferred); ends not checked; also: K10 lipidated, lipid not given here
B3: SEQ ID NO: 178 (peptide)
peptide: [Pen]NT[Trp(7-Me)]K(lipid)[Pen][2‑amino‑3‑(4-(2-aminoethoxy)phenyl)propanoic acid][2‑amino‑3‑(6-hydroxynaphthalen-2-yl)propanoic acid][Thp]K(Ac)N[3Pal][Sar]
modifications: disulfide 1-6 (inferred); ends not checked; also: K5 lipidated, lipid not given here

Biological target: T1, interleukin-23 receptor (IL-23R), Q5VWK5
Experiment: cell-based or functional assay

Binder | IL23R Reporter Assay IC50 [µM] | PBMC pSTAT3 IC50
R[Pen]ET[X1]K(Ac)[Pen][2‑amino‑3‑(4-(2-aminoethoxy)phenyl)propanoic acid][2‑amino‑3‑(6-hydroxynaphthalen-2-yl)propanoic acid][Thp]EN[3Pal][Sar] (disulfide 2-7 (inferred); ends not checked) [SEQ ID NO: 158] | < 0.01 | < 10 pM
B1 | > 0.1 | < 1 nM
[(R)‑3‑carboxy‑2‑(4-(((R)-5-carboxy-5-hydrazineylpentyl)amino)-4-oxobutanamido)‑N,N,N‑trimethylpropan‑1‑aminium][Pen]NT[Trp(7-Me)]K(Ac)[Pen][2‑amino‑3‑(4-(2-aminoethoxy)phenyl)propanoic acid][2‑amino‑3‑(6-hydroxynaphthalen-2-yl)propanoic acid][Thp]EN[3Pal][NMeK](lipid) (disulfide 2-7 (inferred); not fully specified; ends not checked) [SEQ ID NO: 168] | > 0.1 | < 1 nM
[Ava][Abu]NT[Trp(7-Me)]K(Ac)C[2‑amino‑3‑(4-(2-aminoethoxy)phenyl)propanoic acid][2‑amino‑3‑(6-hydroxynaphthalen-2-yl)propanoic acid][Thp]EN[3Pal][Sar] (ends and bridges not checked) [SEQ ID NO: 171] | < 0.01 | < 10 pM
[Ava][Abu]NTWQC[2‑amino‑3‑(4-(2-aminoethoxy)phenyl)propanoic acid][2‑amino‑3‑(6-hydroxynaphthalen-2-yl)propanoic acid][Thp]EN[3Pal][Sar] (ends and bridges not checked) [SEQ ID NO: 172] | < 0.01 | < 10 pM
[Pen]NT[X1]K(Ac)[Pen][5‑(4-(2-amino-2-carboxyethyl)phenoxy)‑N,N,N‑trimethylpentan‑1‑aminium][2‑amino‑3‑(6-hydroxynaphthalen-2-yl)propanoic acid][Thp]EN[X7][Sar] (ends and bridges not checked) [SEQ ID NO: 22] | < 0.01 | < 10 pM
B2 | > 0.1 | > 1 nM
B3 | > 0.1 | > 1 nM
